From patent US20230107004, “[…] ELECTROCHEMICAL BIOSENSOR” (THE GOVERNING COUNCIL OF THE UNIVERSITY OF TORONTO, published 2023) come the findings set out here.

In this series the target is SARS-CoV-2 spike (S/S1) protein (SARS-CoV-2, UniProt P0DTC2 P0DTC2:14-685).

B1: CoV2-RBD-4C aptamer-P2 hybridized to P1 (iMP) (mixed)
DNA 1: ATCCAGAGTGACGCAGCATTTCATCGGGTCCAAAAGGGGCTGCTCGGGATTGCGGATATGGACACGTTTTTCTTATTAGATACAATAGCTGGTA
DNA 2: TACCAGCTATTGTATCTAATAAGA
modifications: P1 strand 5'-thiol-MC6 on gold electrode, 3'-NH2 conjugated to ferrocene
Consider B1, for which the binding result is on record as “binds”.
